Results on one molecule are retold here after US20190033295A1 (published 2019).

This assay addresses HSP70 protein (UniProt P0DMV8 1-641). The experiment in a line: SPR.

Sequence of HSP70 protein (P0DMV8 whole entry): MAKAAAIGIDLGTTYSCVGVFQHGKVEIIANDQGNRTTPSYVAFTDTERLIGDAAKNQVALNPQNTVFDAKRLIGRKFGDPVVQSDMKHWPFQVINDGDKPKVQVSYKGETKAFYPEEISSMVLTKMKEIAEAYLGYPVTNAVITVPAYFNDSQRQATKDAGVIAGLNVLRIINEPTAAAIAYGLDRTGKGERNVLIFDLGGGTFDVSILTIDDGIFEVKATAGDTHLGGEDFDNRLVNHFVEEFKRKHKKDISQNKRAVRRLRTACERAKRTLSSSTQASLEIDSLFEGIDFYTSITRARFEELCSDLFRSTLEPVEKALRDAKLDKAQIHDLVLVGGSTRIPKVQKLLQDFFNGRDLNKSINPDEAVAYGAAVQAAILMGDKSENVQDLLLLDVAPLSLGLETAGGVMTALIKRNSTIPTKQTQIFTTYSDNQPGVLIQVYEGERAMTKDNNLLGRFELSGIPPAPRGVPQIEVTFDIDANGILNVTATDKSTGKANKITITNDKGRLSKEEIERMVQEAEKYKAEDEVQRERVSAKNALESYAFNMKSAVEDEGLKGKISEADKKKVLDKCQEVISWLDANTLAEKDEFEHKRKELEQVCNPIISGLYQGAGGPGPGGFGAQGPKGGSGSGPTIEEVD

B1: AIMP2-DX2 protein (other)
chain: MPMYQVKPYHGGGAPLRVELPTCMYRLPNVHGRSYGPAPGAGHVQDYGALKDIVINANPASPPLSLLVLHRLLCEHFRVLSTVHTHSSVKSVPENLLKCFGEQNKKQPRQDYQLGFTLIWKNVPKTQMKFSIQTMCPIEGEGNIARFLFSLFGQKHNAVNATLIDSWVDIAIFQLKEGSSKEKAAVFRSMNSALGKSPWLAGNELTVADVVLWSVLQQIGGCSVTVPANVQRWMRSCENLAPFNTALKLLK
For the molecule B1, the affinity, expressed as Kd, was 0.479 nM.

The Kd is the free concentration of one partner at which half of the binding sites on the other are occupied at equilibrium, for simple one-to-one binding. A high value points to a looser complex.
